Measurements taken from US20030120051A1 (SUGEN, published 2003).

How the values were obtained:
[1] = target: T1, rat contactin (clone F8; p140 of GH3 cells) (rat, UniProt Q63198 21-1001, GPI-anchored); experiment: cross-linking (DTSSP) on GH3 cells, protein A precipitation, SDS-PAGE
T1 construct: whole, on cells; On transfected COS7 cells, on GH3 cells, in solubilized GH3 membranes or in rat brain membranes, as the entry says; also called rat homologue of contactin; F3/F11
T1 sequence (looked up): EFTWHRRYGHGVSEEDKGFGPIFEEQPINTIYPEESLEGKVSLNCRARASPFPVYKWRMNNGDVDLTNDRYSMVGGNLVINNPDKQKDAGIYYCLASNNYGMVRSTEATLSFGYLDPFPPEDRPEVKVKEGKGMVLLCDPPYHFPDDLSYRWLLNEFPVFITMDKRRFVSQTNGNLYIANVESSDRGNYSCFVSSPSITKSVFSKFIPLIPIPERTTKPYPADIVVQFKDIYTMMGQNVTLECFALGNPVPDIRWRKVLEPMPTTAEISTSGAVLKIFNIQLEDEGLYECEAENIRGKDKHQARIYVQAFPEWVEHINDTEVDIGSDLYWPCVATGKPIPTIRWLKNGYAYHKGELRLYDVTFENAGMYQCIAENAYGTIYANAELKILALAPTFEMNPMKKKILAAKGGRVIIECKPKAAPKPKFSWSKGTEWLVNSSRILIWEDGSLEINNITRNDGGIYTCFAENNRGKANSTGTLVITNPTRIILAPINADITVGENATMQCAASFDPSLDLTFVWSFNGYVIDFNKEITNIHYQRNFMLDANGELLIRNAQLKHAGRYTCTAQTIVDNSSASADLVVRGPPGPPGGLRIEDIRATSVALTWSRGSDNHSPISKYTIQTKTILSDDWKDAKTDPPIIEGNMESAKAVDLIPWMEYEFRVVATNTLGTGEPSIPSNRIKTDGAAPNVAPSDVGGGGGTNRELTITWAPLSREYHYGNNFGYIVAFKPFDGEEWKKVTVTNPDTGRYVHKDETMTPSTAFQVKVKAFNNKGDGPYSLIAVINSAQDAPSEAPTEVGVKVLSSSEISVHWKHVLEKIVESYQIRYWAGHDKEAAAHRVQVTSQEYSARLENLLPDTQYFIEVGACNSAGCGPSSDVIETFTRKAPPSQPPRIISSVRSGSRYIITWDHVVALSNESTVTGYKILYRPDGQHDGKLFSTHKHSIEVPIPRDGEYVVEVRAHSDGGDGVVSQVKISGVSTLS
Experimental: (§1) Cells were incubated for four hours with medium containing, the different Fc-fusion proteins. Following three washes with cold PBS/Ca (1 mM CaCl₂ in PBS), the cells were incubated for additional 30 minutes with PBS/Ca containing 1 mM DTSSP (3,3′-Dithiobis[sulfosuccinimidyl--propionate], Pierce, Rockford, Ill.). Free cross-linker was removed by additional PBS wash followed by quenching with 100 mM glycine in TBS for 10 minutes at 4° C. Cell lysates were made in SBN lysis buffer (Peles et al., 1991, EMBO J., 10:2077-2086), and Sepharose-protein A was added to the cleared lysates. Following two hours incubation at 4° C., the beads were washed three times with HNTG buffer (Peles et al., 1991, EMBO J., 10:2077-2086), and the bound proteins were eluted by adding SDS PAGE sample buffer containing 5% β-mercaptoethanol and further incubation for 10 minutes at 95° C.
(§2) To characterize ligands for RPTPβ, a reversible cross-linker ([…]) was used, and proteins were sought that specifically bound to βC-Fc. Two of the cell lines that bound βC-Fc (IMR32 and GH3), as well as COS7 cells as a control, were allowed to react with the fusion proteins containing the FNIII or the CAH domains followed by cross-linking and precipitation of the complexes. […] No reactivity was detected in control cells or in cells incubated with βF-Fc. […]

[2] = target: T2, human contactin of IMR-32 neuroblastoma cells (140 kDa protein) (human, UniProt Q12860 21-993, GPI-anchored); experiment: cross-linking (DTSSP) on IMR-32 cells, protein A precipitation, SDS-PAGE
T2 construct: whole, on cells; also called p140
T2 sequence (looked up): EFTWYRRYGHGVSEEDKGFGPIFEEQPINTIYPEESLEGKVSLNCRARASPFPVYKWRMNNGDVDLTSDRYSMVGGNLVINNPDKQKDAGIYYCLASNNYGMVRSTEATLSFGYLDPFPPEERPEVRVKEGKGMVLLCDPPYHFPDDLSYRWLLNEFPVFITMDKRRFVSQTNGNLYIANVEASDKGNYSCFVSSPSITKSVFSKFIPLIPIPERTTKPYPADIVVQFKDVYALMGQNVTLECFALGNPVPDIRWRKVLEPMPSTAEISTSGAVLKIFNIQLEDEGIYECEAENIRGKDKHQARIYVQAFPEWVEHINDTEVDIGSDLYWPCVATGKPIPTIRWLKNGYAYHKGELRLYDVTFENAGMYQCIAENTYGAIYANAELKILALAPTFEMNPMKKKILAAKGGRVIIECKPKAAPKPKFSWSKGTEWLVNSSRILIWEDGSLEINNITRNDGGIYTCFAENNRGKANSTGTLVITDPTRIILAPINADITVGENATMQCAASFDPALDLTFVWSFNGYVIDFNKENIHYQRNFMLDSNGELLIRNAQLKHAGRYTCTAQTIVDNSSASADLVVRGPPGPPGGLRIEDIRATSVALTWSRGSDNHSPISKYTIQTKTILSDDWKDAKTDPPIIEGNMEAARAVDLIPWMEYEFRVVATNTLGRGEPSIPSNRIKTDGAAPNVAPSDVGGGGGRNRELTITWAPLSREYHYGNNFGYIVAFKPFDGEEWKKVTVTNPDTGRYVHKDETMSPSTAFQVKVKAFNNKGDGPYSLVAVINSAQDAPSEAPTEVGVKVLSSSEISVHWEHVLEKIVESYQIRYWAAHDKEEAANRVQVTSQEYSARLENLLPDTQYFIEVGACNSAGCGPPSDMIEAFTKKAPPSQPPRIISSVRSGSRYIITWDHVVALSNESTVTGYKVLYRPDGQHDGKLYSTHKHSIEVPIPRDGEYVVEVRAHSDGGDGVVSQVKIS
Experimental: as §1, §2

binding result [1]: no binding
binding result [2]: no binding
B1: βF-Fc (FNIII domain of RPTPβ fused to human IgG1-Fc) (Fc fusion)
chain: not shown
notes: domain: FNIII; also called the FNIII domain alone; fibronectin domain alone; not shown: human IgG1 Fc (vector pCNγ1)
